Target: NTH-RNase E D346N (Escherichia coli (K12, P21513-1 in …, UniProt P21513 1-529, D346N))
Experiment: EMSA; 15 mM CaCl2; 25 mM bis-Tris propane pH 8.3, 100 mM KCl, 15 mM CaCl2, 0.1% (v/v) Triton X-100, 1 mM DTT, 20% (v/v) glycerol, 37 C 20 min; 1% agarose gel in 1x TBE
Conditions: protein: recombinant; tags: N-terminal oligohistidine; chain copies: 4; single-stranded

B1: 5'-monophosphorylated LU13 (ssRNA)
RNA: GAGACAGUAUUUG
modifications: 5'-monophosphate
B1 gave a Kd of 56 nM.

Reference: article PMC9841416, “The recognition of structured elements by a conserved groove distant from domains associated with catalysis is an essential determinant of RNase E”
